Measured values reported in IntAct's records for PubMed 21048939.

Target: arhg7_human ARHGEF7 (UniProt Q14155)
Sequence of UniProt Q14155 (Q14155 whole entry): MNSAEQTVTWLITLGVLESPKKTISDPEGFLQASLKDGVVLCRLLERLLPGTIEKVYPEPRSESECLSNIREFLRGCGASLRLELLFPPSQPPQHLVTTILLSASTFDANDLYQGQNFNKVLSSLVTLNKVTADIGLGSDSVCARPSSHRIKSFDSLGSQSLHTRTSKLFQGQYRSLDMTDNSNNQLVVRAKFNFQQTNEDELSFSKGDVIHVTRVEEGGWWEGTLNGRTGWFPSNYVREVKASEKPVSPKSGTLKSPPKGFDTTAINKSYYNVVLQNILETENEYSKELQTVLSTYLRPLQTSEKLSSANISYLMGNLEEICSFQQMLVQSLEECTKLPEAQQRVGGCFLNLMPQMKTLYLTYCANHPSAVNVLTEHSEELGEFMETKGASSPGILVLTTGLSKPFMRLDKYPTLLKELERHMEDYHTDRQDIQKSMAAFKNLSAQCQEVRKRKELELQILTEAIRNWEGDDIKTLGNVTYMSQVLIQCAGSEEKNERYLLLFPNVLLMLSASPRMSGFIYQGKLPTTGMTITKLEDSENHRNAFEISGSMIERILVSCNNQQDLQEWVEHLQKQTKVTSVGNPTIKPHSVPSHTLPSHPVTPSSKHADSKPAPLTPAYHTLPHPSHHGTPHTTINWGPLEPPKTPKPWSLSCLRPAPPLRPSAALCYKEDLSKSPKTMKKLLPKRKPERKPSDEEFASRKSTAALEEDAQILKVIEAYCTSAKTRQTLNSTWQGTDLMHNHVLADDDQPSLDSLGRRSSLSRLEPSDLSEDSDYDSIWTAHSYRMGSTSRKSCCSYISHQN

| effect of a mutation on the interaction | Substance |
| --- | --- |
| decreasing interaction | Leucine-rich repeat serine/threonine-protein kinase 2 (Homo sapiens), Q5S007 N1437S |
| decreasing interaction | Leucine-rich repeat serine/threonine-protein kinase 2 (Homo sapiens), Q5S007 R1441C |
| decreasing interaction | Leucine-rich repeat serine/threonine-protein kinase 2 (Homo sapiens), Q5S007 T1348N |
